Measured values taken from patent publication US20050130287A1, “Purifying process of soluble proteins of the l.obliqua bristles through prothrombin activation: process for a partial determination of the amino acids sequence of the prothrombin activator; process for determining the prothrombin activation of fraction II, n-terminal and internal fragments sequences” (priority 2002, published 2005).

Tests used:
[1] = biological target: prothrombin (UniProt P00734)
[2] = system: T1, Abz-YQTFFNPRTFGSQ-EDDnp
T1 sequence: YQTFFNPRTFGSQ

[3] = biological target: purified human fibrinogen (UniProt P02671)
[4] = system: Factor X

Substance	Coagulation Time (S) of fibrinogen, with Ca2+ [1] [s]	Coagulation Time (S) of fibrinogen, without Ca2+ [1] [s]	Kcat [2]	Kcat/Kmapp [2]	Kmapp [2]	Coagulation Time (S) of fibrinogen, without Factor II [3]	Factor X activation, hydrolysis of S-2765 [4]	Factor X activation, hydrolysis of S-2765 (p-nitroaniline formed) [4]
Factor Xa	120	–	–	–	–	–	–	–
Lonomia obliqua Prothrombin Activator Protease (Lopap)	60	240	Kcat 5,32 sec^-1	Kcat/K mapp 1,2×106 M^-1 sec -1	Kmapp 4,5 µM	Lopap + / F II - / FG +: >1200	Lopap did not present capacity of activating factor X	When Factor X (30 nM) was added to the experiment, the substrate hydrolysis obtained was of 2,6 µM
